Paper PMC4813479, “β-Subunit Binding Is Sufficient for Ligands to Open the Integrin αIIbβ3 Headpiece” (The Journal of Biological Chemistry, 2015)

Target: full-length human αIIbβ3 on CHO K1 cells (human) (UniProt P08514)

fibronectin hexapeptide GRGDSP
EC50 of LIBS1 epitope exposure on CHO cells expressing αIIbβ3 (flow cytometry, 1 mM Mg2+ and 1 mM Ca2+): 210 µM
